Laboratory results from publication PMC9712074 (Cell Reports, 2022).

B1: BD55-4495 (antibody, V domains shown)
VH: QGHLVQSGAEVKEPGASVTLSCKASGYTFTNHFMHWVRQAPGQGLEWMARINPSGDSTNLAQKFQGRVSVTRDSSTSTVYMYLSRLRVEDTAVYYCARDRFPSPGNFVWGSPLGGMDVWGQGTTVTVSS
VL: SYDLAQPPSVSVSPGQTATITCSGAALPNQYAYWYQQKSGQAPVLLLYKDSERPSGIPERFSGSNSGTTVTLTISGVQAEDEAVYYCQSADSSTSYHVFGAGTKVTVL
B2: BD55-4662 (antibody, V domains shown)
VH: QVQLQESGPGLVKPSETLSLTCTVSGASISSYYWTWIRQPPGKGLEWIGYIYNSGSTDYSPRGSTNYSPSLESRVTISVDTSKNQFSLKLSSVTAADTAVYHCARHPWTEMATYRSAYYFDSWGQGTLVTVSS
VL: QSALTQPASVSGSPGQSITISCTGTTSDVGAYNHVSWYQQHPGKAPNLMIYDVSERPSGVSDRFSASKSGNTASLTISGLQAEDEADYYCCSYAGRSTWMFGGGTKLTVL
B3: BD55-4664 (antibody, V domains shown)
VH: QVQLQQWGAGLLRPSETLSLTCAVSGGSFSGYYWSWIRQPPGKGLEWIGEINHTGGTNYNPSLKSRVTVSIDMSRNQFSVKLNSLTAADTAVYFCAREAPDYFDSSGYRFDYWGQGALVTISS
VL: QSALTQPASVSGSPGQSITISCTGTSNDVGGYNYVSWYQQHPGKAPKLIIYDVTSRPSGISNRFSGSKSGNTASLTISGLQAEDEADYYCCSYTRSFTRVFGGGTKLTVL
B4: BD55-4760 (antibody, V domains shown)
VH: EVQLVEAGGDLVQPGRSLRLSCAASGFNFDDCAMHWVRQAPGKGLEWVSGINWSSGDIDYADSVKGRFTISRDNAKNSLYLQMNSLRPEDTAFYYCAKDPWGELSSIDFWGQGTLVTVSS
VL: QLVLTQSPSASASLGASVKLTCTLSRGHSSYAIAWHQQQPEKGPRYLMRVNSDGSHIKGDGIPDRFSGSSSGAERYLTISSLQSEDEADYYCQTWSIGIRVFGGGTKLTVL
B5: BD55-4892 (antibody, V domains shown)
VH: QVQLVESGGGVVQPGGSLRLSCAASGFTFSTYGMHWVRQAPGKGLEWVAVISYDGNNKYHADSVKGRFTISRDNSKNTLYLEMKSLRAEDTAVYYCAKEVNYGSGSFENEGRLDYWGQGTLVTVSS
VL: DIQMTQSPSSLSASVGDRVTITCRTSQSINRYLNWYQQKPGKAPKLLIYATSTLQSGVPSRFSGSGSGTDFILTISNLQPEDFAAYYCQQTYSIPWTFGQGTKVEIK
B6: BD55-5001 (antibody, V domains shown)
VH: QVQLVQSGSELKKPGASVKVSCKTSGYTFSTYAINWVRQAPGQGLEWMGWINTDTGIPTYAQGFTGRFVLSLDTSVGTAYLQISSLKAEDTAVYYCARADSGSYSWWFDPWGQGTLVTVSS
VL: VIWMTQSPSSLSASIGDRVTISCRLSYGISSELVWYKQKPGKAPELLIYAASILQSGVPSRFSGTGSGTDFTLTISGLQSEDFATYYCQQYYSFPLTFGQGTKVEIK
B7: BD55-5163 (antibody, V domains shown)
VH: QVQLVQSGAEVKKPGASLKVSCKASGYTFTYFGVSWVRQAPGQGLEWVGWISTYHGDTNYAQKLQGRVTLTTDTSTSTVYMELRNLRSDDTAIYYCAREGGSGWGDFWGQGTLVTVSS
VL: EIVLTQSPATLSLSPGERATLSCRANQSISNYLAWYQQRPGQAPRLLIFDASNRATGIPARFTGSGSETDFTLTISSLEPEDFAVYYCQQRSNWPPAFGQGTRLDIK
B8: BD55-5164 (antibody, V domains shown)
VH: QLQLQESGPGLVKPSETLSLTCIVSRGSISSSSYFWAWVRQAPGKGLEWIGTIDYTGNTHYNTSLKSRVTISVDTSKNQFSLRLRSVTAADTALYFCSRQSAPPWGSSWGDYWGRGTLVTVSS
VL: DIQMTQSPSSLSASVGDRVTISCQASQDISNYLNWYHQTPGKAPILLIFDASNLEAGVPSRFSGSGSGRHFSFTISSLQPEDTGTYYCQQYANLPALTFGGGTKVDIK
B9: BD55-5167 (antibody, V domains shown)
VH: QITLKESGPTLVKPTQTLTLTCTFSGFSLTTTGMGVGWIRQPPGKAPEWLALIYWLDDTRYSPSLESRLTLTKDTSKNLVVLTMTNMDPVDTATYYCAHLYYDSSSGYDTTGPDAFDFWGQGTMVTVSP
VL: AIQITQSPSSLSASPGDRVTITCRASQGISSFLAWYQQRRGRAPKLLIHSASTLQNGVPSRISGSGSGTDFTLTITGLQSEDFATYYCQQYYSYPPTFGHGTKVEF
B10: BD55-5168 (antibody, V domains shown)
VH: QVQLVQSGSEVKKPGSSVKVSCKASGGSFRSHAISWVRQAPGQGLEWMGCVIPTFDTANYAQNFRGRVTLTADESTSTAYMELTSLTSDDTAVYYCARLFPNGTPDSPTGPLDYWGQGTLVTVSS
VL: DIQMTQSPSSLSASVGDRVTITCQASQGIGNYLNWYQQKPGKAPKLLIYGASNLHTGVPSRFSGRGSGTHFTFTINSLQPEDVATYYCQQYDYVPMYTFGQGTKLEIK
B11: BD55-5170 (antibody, V domains shown)
VH: QVQLVESGGGVVQPGRSLRLSCVASGFTFNTYGMHWVRQVPGKGLEWVAVISYDGSNQIYGDSVKGRFTISRDNSKNTVYLQMNGLRAEDTAVYYCATPLHDYSGYDLFDYGYAMDVWGQGTTVTVSS
VL: QSVLTQPPSASGTPGQRVTVSCSGSSSNIGSDYVYWYQQFPGTAPKLLIYRNSQRPSGVPDRFSGSKSGTSASLAISGLRSEDEADYYCAAWDGSISAWVFGGGTKLTVL
B12: BD55-5171 (antibody, V domains shown)
VH: QVQLVQSGSGLKKPGASVKVSCRTSGYSFTDHTINWVRQAPGQGLEWMGWINTATGIPTYAQGFTGRFVFSLDTSVGTAFLLISSLQAADTAVYYCARAASWDYCGNNNCFGDYWGQGTLVTVSS
VL: ENVLTQSPGTLSLSVGERVTLSCRASHSVGSSFLAWYQQKPGQAPRLLIYGASNRATGIPDRISGRGSGTDFSLTISRLEPEDFAVYYCHQYGSSPFTFGQGTKVEIK
B13: BD55-5175 (antibody, V domains shown)
VH: QVQLVQSGPELKRPGASVKVSCETSGYTFTDYAINWVRQAPGQGLEWMGWINTNTGHPTYAQGFTGRFVFSVDMSDSTAYLQISSLKPADTAVYYCARDFQVPEGLDYWGQGTLVTVSS
VL: DIVMTQSPATLSLSPGETATLSCRASYSFTSRLAWYQQKPGQAPRLLIHDASNRAPGVPARFSGSGSGTEFTLAISGLQSEDSAVYYCQQYHSWPLTFGQGTKVEIK
B14: BD55-5182 (antibody, V domains shown)
VH: EVQLVESGGGLVKPGGSLRLSCAASGFTLSNAWMTWVRQAPGKGLEWIARIKGKVDGATRDYAAPVKGRFTISTDDSKTTLFLQMNTLKTEDTAVYFCTALFTSYDMLTGRAGGRGYWGQGTLVTVSS
VL: NVMLTQPHSVSESPGKTVTISCTRSSGSIASNYVQWYQQRPGSAPTTVIYEDNQRPSGVPDRFSGSIDSSSNSASLTISGLETEDEADYYCQSFDSSNHMNWVFGGGTKLTVL
B15: BD55-5183 (antibody, V domains shown)
VH: QVQLVQSGGEVKKPGSSVKVSCRASGGTFSGYTISWVRRAPGQGLEWMGGIIPMYGAANYAQKFQGRVTISAETSTGTAYMELSGLTSDDTAMYYCARDLGGEDITVAGKAPDYWGQGTLVTVSS
VL: DIQMTQSPSSLSASVGDRVTVTCRASQSISKYLNWYQERPGKAPKLLIYTASSLPSEVPSRFSGSGFGTDFTLTISGLQPEDFATYYCQQSYSLPYTFGQGTKLEIK
B16: BD55-5189 (antibody, V domains shown)
VH: QVQLVQSGAEVKKPGASVKVSCKASGYSFTTFYIHWLRQAPGQGLEWMGIVNVAGDTTDYAQNFQGRVTMTRDTSTGTVYMELSSLRSEDTAIYYCASPREKGYSGYDFWETTFDIWGQGTMVTVS
VL: EVVMTQSPATLSVSPGERATLSCRASQSISSNLAWYQQKPGQAPRLLIYGASTRATGIPARFSGSGSGSQFTLTISSLQSEDFVVYYCQQYNNWPPIFGQGTKLEIK
B17: BD55-5195 (antibody, V domains shown)
VH: QLQLQESGPRLVKPSETLSLTCSVSGGSIRSNSDYWAWIRQSPGQGLEWIGSISHSGSTYYNPSLKSRVSIFVDTSSNQFSLNLTSVTAADTAVYHCARHPSSGWLILWFDPWGQGTLVTVSS
VL: EIVLTQSPGTLSLSPGERATLSCRASQSISSNFLAWYQQKPGQAPRLLIYGASNRATDIPDRFSGSGSGTDFTLTVRRLEPEDFAVYYCHQYDTSPQTFGQGTKVEIK
B18: BD55-5196 (antibody, V domains shown)
VH: QVHLVQSGAEVRKPGASVKVSCKASGYTFTSYFMYWVRQAPGHGLEWMGMIDPISGSTNYAQRFQGRVTMTRDTSTSTVNMELTSLRSEDTAVYYCARDGGIRFGDLSPDNWFDPWGRGTLVTVSS
VL: QSVLTQPPSVSGAPGQRVTISCTGSSSNLGAGYDVHWYQQLPGTAPKLLIYGNNNRPSGVPDRFSGSRSGTSASLAITGLLAEDEADYYCQSYDSSSLSGSKVFGTGTTVTVL
B19: BD55-5198 (antibody, V domains shown)
VH: EVQLVESGGGVVKPGGSLRLSCAASGFTFSAFAMHWVRQVPGKGLEYISLISEDGYSTFYAASVTGRFTLSRDNNKKSLYLQMNSLRSEDTAFYYCAKDIGGTVAGTGADFWGQGILVTVSS
VL: QSVLTQPPSVSGAPGQKVTISCTGDSSNIGAGYTVHWYQQLPGTAPKLLIYGDNNRPSGVPDRFSGSKSGTSASLAITGLQAEDEADYYCQSYDTSLSGLWVFGGGTRLTVL
B20: BD55-5200 (antibody, V domains shown)
VH: QVQLQESDPGLVKPSQTLSLTCTVSGGSISGGSNFWNWIRQPAGKGLEWIGRIYTSGNTDYNPSLKSRVTISVDTSKNQFSLRLSSVTAADTAVYYCARDRLSGKVEVAINHFSYGLDVWGPGTTVTVSS
VL: SHELTQPPSVSVSPGQTARITCSGDALPKQYAYWYQQKSGQAPVLVIYKDSERPSGIPERFSGSSSGRTVTLTISGVQAEDEADYYCQSADSSNIYLAFGGGTKVTVL
B21: BD55-5201 (antibody, V domains shown)
VH: QVQVVQSGAEVKKPGSSVKVSCEASGGTFSSDTIHWVRQAPGQGLEWMGRIIPIPGIVNYAQKFQGRVTITADKSTSIAYMELSSLRSEDTAVYYCASAPPRGYSGYDLLGNDPLDIWGQGTMVTVSS
VL: QSVLTQPPSVSGAPGQRVTISCTGSSSNIGAGYDVHWYQQLPGTAPKFFISVNNNRPSGVPDRFSGSKSGTSASLAITGLQAEDEAVYYCQSFDSSLSGSYVFGTGTKVTVL

What follows are binders tested against SARS-CoV-2 (WT) Spike RBD Protein (His Tag) (SARS-CoV-2 ancestral (Wuhan-Hu-1), UniProt P0DTC2).

Binder | binding result
B1 | binds
B2 | binds
B3 | binds
B4 | binds
B5 | binds
B6 | binds
B7 | binds
B8 | binds
B9 | binds
B10 | binds
B11 | binds
B12 | binds
B13 | binds
B14 | binds
B15 | binds
B16 | binds
B17 | binds
B18 | binds
B19 | binds
B20 | binds
B21 | binds
